Legend:
[1] = target: T1, acetic acid-extracted tail tendon mouse collagen I (mouse, UniProt P11087 152-1207; Q01149 86-1125); experiment: ELISA; solid-phase assay: collagen coated at 10 μg/ml in PBS; serially diluted FMOD or LOX; detected with anti-His tag or anti-LOX antibodies; apparent KD; conditions: both partners purified
T1 construct: collagen I alpha1 chain, mouse, tissue-extracted; collagen I alpha2 chain, mouse, tissue-extracted; also called collagen type I; full-length collagen; source: extracted from mouse tail tendons using 20 mM acetic acid

[2] = target: T2, recombinant lysyl oxidase protein (Origene) (UniProt P28300 22-417); experiment: ELISA; solid-phase assay: FMOD variants coated; serial dilutions of LOX; detected with anti-LOX antibody; apparent KD; conditions: both partners purified
T2 construct: lysyl oxidase; the functional rows use this molecule for it; source: bought: Origene
T2 sequence (looked up): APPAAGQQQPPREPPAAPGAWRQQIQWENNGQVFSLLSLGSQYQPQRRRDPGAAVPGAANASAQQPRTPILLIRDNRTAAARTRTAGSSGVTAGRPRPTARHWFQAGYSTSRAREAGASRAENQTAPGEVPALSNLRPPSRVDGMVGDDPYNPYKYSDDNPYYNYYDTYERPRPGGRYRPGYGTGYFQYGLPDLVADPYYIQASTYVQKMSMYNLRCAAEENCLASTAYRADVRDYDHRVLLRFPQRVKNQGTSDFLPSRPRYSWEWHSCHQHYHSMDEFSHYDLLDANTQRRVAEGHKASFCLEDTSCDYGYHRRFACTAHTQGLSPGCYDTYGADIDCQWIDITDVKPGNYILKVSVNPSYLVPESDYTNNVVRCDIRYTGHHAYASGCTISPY

T1 sequence (P11087 152-1207, chain 1 of 2): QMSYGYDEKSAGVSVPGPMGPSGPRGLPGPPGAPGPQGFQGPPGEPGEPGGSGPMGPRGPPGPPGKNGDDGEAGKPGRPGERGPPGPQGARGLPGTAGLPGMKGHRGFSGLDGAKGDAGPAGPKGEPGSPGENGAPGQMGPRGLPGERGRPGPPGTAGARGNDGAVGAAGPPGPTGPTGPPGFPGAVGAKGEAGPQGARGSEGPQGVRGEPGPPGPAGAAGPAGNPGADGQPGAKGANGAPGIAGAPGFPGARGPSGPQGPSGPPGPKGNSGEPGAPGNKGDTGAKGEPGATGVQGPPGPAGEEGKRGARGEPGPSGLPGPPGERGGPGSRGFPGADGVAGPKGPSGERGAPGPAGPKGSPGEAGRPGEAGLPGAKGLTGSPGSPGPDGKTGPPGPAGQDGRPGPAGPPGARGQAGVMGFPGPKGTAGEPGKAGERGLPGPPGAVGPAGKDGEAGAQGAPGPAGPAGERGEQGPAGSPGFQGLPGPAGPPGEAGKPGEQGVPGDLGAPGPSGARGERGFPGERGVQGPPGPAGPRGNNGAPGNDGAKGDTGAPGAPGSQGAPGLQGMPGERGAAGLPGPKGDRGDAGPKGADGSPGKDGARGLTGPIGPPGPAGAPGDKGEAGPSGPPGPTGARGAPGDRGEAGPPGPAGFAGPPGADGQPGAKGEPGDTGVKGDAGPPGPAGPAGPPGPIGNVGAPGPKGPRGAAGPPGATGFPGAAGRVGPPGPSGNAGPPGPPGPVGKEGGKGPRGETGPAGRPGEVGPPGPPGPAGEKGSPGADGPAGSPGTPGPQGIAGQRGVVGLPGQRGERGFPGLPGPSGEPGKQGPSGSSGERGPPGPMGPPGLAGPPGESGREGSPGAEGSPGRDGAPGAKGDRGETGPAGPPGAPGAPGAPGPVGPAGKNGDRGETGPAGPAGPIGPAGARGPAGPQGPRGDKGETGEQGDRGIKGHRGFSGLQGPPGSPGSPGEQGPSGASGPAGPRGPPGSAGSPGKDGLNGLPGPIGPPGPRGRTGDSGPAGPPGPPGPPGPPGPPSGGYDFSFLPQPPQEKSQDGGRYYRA
T1 sequence (Q01149 86-1125, chain 2 of 2): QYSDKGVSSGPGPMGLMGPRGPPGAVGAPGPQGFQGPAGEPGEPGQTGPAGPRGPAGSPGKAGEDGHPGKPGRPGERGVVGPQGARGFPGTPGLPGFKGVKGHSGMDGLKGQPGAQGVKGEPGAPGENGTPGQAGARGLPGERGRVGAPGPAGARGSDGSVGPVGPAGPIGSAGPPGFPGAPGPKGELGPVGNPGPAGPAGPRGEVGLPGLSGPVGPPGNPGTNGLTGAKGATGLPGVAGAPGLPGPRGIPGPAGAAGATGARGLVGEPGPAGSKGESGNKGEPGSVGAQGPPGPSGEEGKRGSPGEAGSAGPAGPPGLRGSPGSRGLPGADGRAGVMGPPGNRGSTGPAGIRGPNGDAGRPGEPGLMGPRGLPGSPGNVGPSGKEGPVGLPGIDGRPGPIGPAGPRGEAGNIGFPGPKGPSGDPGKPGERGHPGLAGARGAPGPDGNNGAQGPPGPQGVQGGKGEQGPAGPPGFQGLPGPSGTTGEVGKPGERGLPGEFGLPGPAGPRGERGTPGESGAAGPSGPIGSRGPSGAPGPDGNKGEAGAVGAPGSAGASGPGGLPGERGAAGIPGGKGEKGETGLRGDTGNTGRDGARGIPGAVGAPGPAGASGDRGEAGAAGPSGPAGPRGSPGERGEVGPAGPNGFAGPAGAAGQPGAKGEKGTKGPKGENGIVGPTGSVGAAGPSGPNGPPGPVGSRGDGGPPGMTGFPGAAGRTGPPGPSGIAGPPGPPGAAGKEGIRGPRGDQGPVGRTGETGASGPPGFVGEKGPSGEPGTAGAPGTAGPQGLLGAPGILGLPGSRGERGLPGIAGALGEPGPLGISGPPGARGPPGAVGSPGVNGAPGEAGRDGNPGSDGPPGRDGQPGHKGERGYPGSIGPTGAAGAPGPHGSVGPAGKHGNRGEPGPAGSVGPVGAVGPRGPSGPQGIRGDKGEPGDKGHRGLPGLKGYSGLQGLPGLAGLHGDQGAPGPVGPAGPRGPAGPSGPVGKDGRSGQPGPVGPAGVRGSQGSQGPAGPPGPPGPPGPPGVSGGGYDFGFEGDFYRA

Kd [1]: ~250 nM
Kd [2]: ~150 nM
B1: His tag-modified recombinant fibromodulin (human, amino acids 19–376) (natural protein, UniProt Q06828 19-376, looked up)
chain: QYEDDPHWWFHYLRSQQSTYYDPYDPYPYETYEPYPYGVDEGPAYTYGSPSPPDPRDCPQECDCPPNFPTAMYCDNRNLKYLPFVPSRMKYVYFQNNQITSIQEGVFDNATGLLWIALHGNQITSDKVGRKVFSKLRHLERLYLDHNNLTRMPGPLPRSLRELHLDHNQISRVPNNALEGLENLTALYLQHNEIQEVGSSMRGLRSLILLDLSYNHLRKVPDGLPSALEQLYMEHNNVYTVPDSYFRGAPKLLYVRLSHNSLTNNGLASNTFNSSSLLELDLSYNQLQKIPPVNTNLENLYLQGNRINEFSISSFCTVVDVVNFSKLQVLRLDGNEIKRSAMPADAPLCLRLASLIEI
modifications: tyrosine sulfation (positions not given)
notes: fibromodulin, human, amino acids 19-376; also called FMOD; full-length FMOD; source: 293T cells (pCEP4 vector), purified (Ni-NTA-Sepharose, Superose 6)

Source: PMC4825002, “Fibromodulin Interacts with Collagen Cross-linking Sites and Activates Lysyl Oxidase*” (The Journal of Biological Chemistry, 2016)
